The target of this series is SARS-CoV-2 nucleoprotein (NP) (SARS-CoV-2, UniProt P0DTC9 1-419).

In the case of GGGGGGGGGGGG (structured_RNA, phosphorothioate linkages) [TAMRA-G12(S)], the binding result is “binds”.

Source of the values: paper PMC11735773.
